Tests used:
Type in all cases: cell-based
[1] = system: MAPKs (ERK, p38 MAPK, Jun N-terminal kinase) in HeLa cells; experiment: Effect on MAPKs (immunoblotting of total and phosphorylated MAPKs)
Description: HeLa cells were cultured on a 6-well plate for 12 hours. After washing 2 times, the cells were allowed to stand in serum-starved DMEM for 3 hours. Then, the cells were cultured with GRS protein (150 nM) or TNF-α (15 ng/mL) for 10, 30, 60, 90 or 120 minutes, and then washed 2 times with cold phosphate buffer. The protein was extracted with 25 mM Tris-HCl (pH 7.4) lysis buffer containing 150 mM NaCl, 1 mM EDTA, 1 mM sodium orthovanadate, 20 mM sodium fluoride, 12 mM β-glycerophosphate, 10% glycerol, 1% Triton X-100 and protease inhibitor, separated by loading on 10% SDS-PAGE, and then transferred to polyvinylidene difluoride (PVDF) membrane (Millipore). Then, immunoblotting was performed using antibodies specific total MAPKs and phosphorylated MAPKs.

[2] = system: HeLa and HCT+/− cancer cells, normal 293 cells and macrophage RAW cells; experiment: Attachment of biotinylated GRS protein to cells (Western blotting with streptavidin-HRP); conditions: 0, 1, 2, 5 or 10 μg biotinylated GRS protein; FIG. 4
Description: HeLa and HCT+/− cancer cells, normal 293 cells and macrophage RAW cells were placed on a 35-mm dish, cultured for 18 hours, and then washed with serum-starved medium (1 mL). Then, after adding 0, 1, 2, 5 or 10 μg of biotinylated GRS protein, proteins were collected from the whole cell lysate in the same manner as in Example 1. Then, Western blotting was performed using streptavidin-HRP and anti-tubulin antibodies.

[3] = system: HeLa, A549, HCT+/− and HCT+/+ cancer cells; experiment: Anticancer activity by FACS (sub-G1 dead cells), cancer cells; conditions: GRS protein 100 nM, FIG. 5
Description: (§1) HeLa, A549, HCT+/− and HCT+/+ cancer cells, BV2 and SH-SY5Y neural cells, human skin fibroblast HSF cells, and macrophage RAW cells were placed on a 35-mm dish, and cultured for 18 hours. The cell culture was washed with serum-starved medium (1 mL), treated with GRS protein (0 or 100 nM), heated GRS protein (100 nM) or 1 μg/mL Adriamycin, and further treated with trypsin EDTA. The cells were isolated and centrifuged at a rate of 500 g for 10 minutes. After decanting the supernatant, the cells were resuspended in cold PBS (0.3 mL). After adding cold 100% EtOH (0.7 mL) and mixing for 5 seconds, the mixture was incubated at −20° C. overnight. The cell culture was centrifuged at a rate of 500 g at 4° C. for 10 minutes. After decanting the supernatant, adding cold PBS (1 mL) and mixing for 5 seconds, the mixture was centrifuged again at a rate of 500 g at 4° C. for 10 minutes. After decanting the supernatant, the cells were resuspended in P.I solution (500 μL) and incubated at room temperature for 20 minutes. Then, the number of dead cells was counted by FACS by measuring the quantity of DNA fragments resulting from apoptosis. The result is shown in FIG. 5 (The cells in sub-G1 phases were considered as dead cells).

[4] = system: BV2 and SH-SY5Y neural cells, macrophage RAW cells; experiment: Anticancer activity by FACS (sub-G1 dead cells), neural and immune cells; conditions: GRS protein 100 nM; FIG. 5
Description: as §1

[5] = system: HeLa, A549, HCT+/− and H460 cancer cells; experiment: Anticancer activity by MTT assay, cancer cells; conditions: His-GRS protein 50, 100 or 150 nM, 24 hours, FIG. 6
Description: (§2) HeLa, A549, HCT+/− and H460 cancer cells, H293 kidney cells, SH-SY5Y neural cells, human skin fibroblast HSF cells, and macrophage RAW cells were placed on a 96-well plate, cultured for 18 hours, washed with serum-starved medium, treated with His-GRS protein (0, 50, 100 or 150 nM), heated His-GRS protein (150 nM) or 2 μg/mL Adriamycin in serum-starved medium (100 μL), cultured for 24 hours, treated with 5 mg/mL MTT (10 μL per each well), and then cultured for 2 hours. After decanting the supernatant using a syringe and treating with DMSO (100 μL per each well), the cells were cultured for 10 minutes and absorbance was measured at 570 nm using an ELISA reader.

[6] = system: H293 kidney cells, SH-SY5Y neural cells, macrophage RAW cells; experiment: Anticancer activity by MTT assay, kidney, neural and immune cells; conditions: His-GRS protein 50, 100 or 150 nM, 24 hours; FIG. 6
Description: as §2

[7] = system: caspase 3 in HCT+/− cancer cells; experiment: Caspase 3 assay (Western blotting); conditions: His-GRS protein 50, 100 or 150 nM, 24 hours, FIG. 7
Description: HCT+/− cancer cells or macrophage RAW cells were placed on a 35-mm dish. 18 hours later, after washing with serum-starved medium, the cells were treated with His-GRS protein (0, 50 nM, 100 nM or 150 nM) or heated His-GRS protein (150 nM) in serum-starved medium (1 mL). After culturing for 24 hours, the cells were collected using a lifter. The cells were centrifuged at 3000 rpm for 5 minutes and, after decanting the supernatant, adding lysis buffer (200 μL) containing 0.5% Triton X-100, 2 mM EDTA, 10% glycerol, 150 mM NaCl, 25 mM Tris-HCl (pH 7.4) and protease inhibitor, and mixing at 4° C. for 30 minutes, the mixture was centrifuged at a rate of 12,000 rpm at 4° C. for 15 minutes and the protein was quantitated by the Bradford method. The collected protein was separated by loading on 15% SDS-PAGE and Western blotting was carried out using anti-caspase 3 and anti-tubulin antibodies.

[8] = system: p38 kinase in HCT+/− cancer cells; experiment: Apoptosis mechanism: p38/ERK Western blotting; conditions: 100 nM GRS protein, 0-120 minutes; FIG. 8
Description: HCT+/− cancer cells were placed on a […]. 18 hours later, after washing with serum-starved medium, the cells were treated with 100 nM GRS protein or 2 μg/mL lipopolysaccharide (LPS) in serum-starved medium (1 mL). After culturing for 0, 10, 30, 60, 90 or 120 minutes, the cells were collected using a lifter. The cells were centrifuged at 3,000 rpm for 5 minutes and, after decanting the supernatant, adding lysis buffer (200 μL) containing 0.5% Triton X-100, 2 mM EDTA, 10% glycerol, 150 mM NaCl, 25 mM Tris-HCl (pH 7.4) and protease inhibitor, and mixing at 4° C. for 30 minutes, the mixture was centrifuged at a rate of 12,000 rpm at 4° C. for 15 minutes and the protein was quantitated by the Bradford method. The collected protein was separated by loading on 10% SDS-PAGE and Western blotting was carried out using anti-p-p38, anti-p38, anti-p-ERK, anti-ERK and anti-tubulin antibodies.

[9] = system: Bax, Bcl-2 and cytochrome C in HeLa cells; experiment: Intracellular level of Bax, Bcl-2 and cytochrome C (Western blotting); conditions: 150 nM GRS
Description: Also, in order to investigate whether the GRS-induced apoptosis is related with mitochondria, the intracellular level of Bax, Bcl-2 and cytochrome C was examined. First, HeLa cells were cultured with 150 nM GRS for a predetermined time. The cells were then collected, resuspended in 20 mM HEPES (pH 7.5) storage buffer containing 10 mM KCl, 1.5 mM MgCl2, 0.5 mM EDTA, 1 mM DTT and protease inhibitor (Calbiochem), allowed to stand on ice for 5 minutes, and then homogenized for 6 cycles. Then, after centrifuging at 10,000 g for 10 minutes, protein was separated from the supernatant using 12% SDS-PAGE and transferred to PVDF membrane. Then, Western blotting was performed using cytochrome C or anti-tubulin antibody. […] To be concluded, GRS has pro-apoptotic activity in the HeLa cells.

[10] = system: HeLa cells and RAW 264.7 cells; experiment: Cell viability with GST-GRS fragments (MTT assay); conditions: GST-GRS fragments added to HeLa and RAW 264.7 cells; FIG. 15
Description: In order to investigate the domain of the GRS protein related to cytokine activity, four GRS fragments of SEQ ID NOs. 3 to 6 (FIGS. 13 and 14) were prepared and they were expressed with the GST fusion protein. […] Then, cell viability was examined.

[11] = GRS protein 150 nM, 10-120 minutes, FIG. 9

TNF-α [reference compound] was tested, and the “phosphorylation of all the MAPKs” value ([1]; TNF-α 15 ng/mL, FIG. 10) was “increased in 30 minutes”.

B1: GRS protein: glycyl-tRNA synthetase (GRS) protein, amino acid sequence of SEQ ID NO. 1 (protein, listed as Homo sapiens)
chain: MDGAGAEEVLAPLRLAVRQQGDLVRKLKEDKAPQVDVDKAVAELKARKRVLEAKELALQPKDDIVDRAKMEDTLKRRFFYDQAFAIYGGVSGLYDFGPVGCALKNNIIQTWRQHFIQEEQILEIDCTMLTPEPVLKTSGHVDKFADFMVKDVKNGECFRADHLLKAHLQKLMSDKKCSVEKKSEMESVLAQLDNYGQQELADLFVNYNVKSPITGNDLSPPVSFNLMFKTFIGPGGNMPGYLRPETAQGIFLNFKRLLEFNQGKLPFAAAQIGNSFRNEISPRSGLIRVREFTMAEIEHFVDPSEKDHPKFQNVADLHLYLYSAKAQVSGQSARKMRLGDAVEQGVINNTVLGYFIGRIYLYLTKVGISPDKLRFRQHMENEMAHYACDCWDAESKTSYGWIEIVGCADRSCYDLSCHARATKVPLVAEKPLKEPKTVNVVQFEPSKGAIGKAYKKDAKLVMEYLAICDECYITEIEMLLNEKGEFTIETEGKTFQLTKDMINVKRFQKTLYVEEVVPNVIEPSFGLGRIMYTVFEHTFHVREGDEQRTFFSFPAVVAPFKCSVLPLSQNQEFMPFVKELSEALTRHGVSHKVDDSSGSIGRRYARTDEIGVAFGVTIDFDTVNKTPHTATLRDRDSMRQIRAEISELPSIVQDLANGNITWADVEARYPLFEGQETGKKETIEE
modifications: His tag; PEPTIDE (1)..(685) full length of GRS
In the case of B1, the “attachment of GRS protein to the surface of cells” value [2] is reported as “attached to the surface of other cells”, the “killing of cancer cells (dead cells in sub-G1 counted by FACS)” value [3] is reported as “specifically killed” and the “effect on neural and immune cells (dead cells in sub-G1 counted by FACS)” value [4] is reported as “little effect”. For the same molecule, the “killing of cancer cells (cell viability by MTT assay)” value [5] was “specifically killed”, the “effect on kidney, neural and immune cells (cell viability by MTT assay)” value [6] was “little effect” and the “caspase 3 in active form” value [7] was “caspase 3 in active form was observed”. For the same molecule, the “effect on p38 kinase-related mechanism” value [8] was “had an effect on the p38 kinase-related mechanism”, the “level of phosphorylated ERK” value [1, 11] was “increased with time” and the “level of phosphorylated p38 MAPK” value [1, 11] was “increased with time”. The “intracellular level of Bax” value ([9]; FIG. 11) was “did not affect”, the “intracellular level of Bcl-2” value ([9]; FIG. 11) was “reduction” and the “secretion of cytochrome C” value ([9]; FIG. 12) was “increased”.

B2: F4: 511st through 685th amino acids of the full-length GRS, including the C-terminal anticodon-binding domain (protein, listed as Homo sapiens)
chain: LYVEEVVPNVIEPSFGLGRIMYTVFEHTFHVREGDEQRTFFSFPAVVAPFKCSVLPLSQNQEFMPFVKELSEALTRHGVSHKVDDSSGSIGRRYARTDEIGVAFGVTIDFDTVNKTPHTATLRDRDSMRQIRAEISELPSIVQDLANGNITWADVEARYPLFEGQETGKKETIEE
modifications: DOMAIN (1)..(175) Fragment 4 (511-685aa)
With B2 the “pro-apoptotic cytokine activity (cell viability)” value [10] was “exhibited pro-apoptotic cytokine activity”.

— patent US8901081B2, “Uses of GRS proteins or fragments thereof” (SNU R&DB Foundation, priority 2008, dated 2014)
